# Laboratory results published in publication PMC3402150, “An endogenous factor enhances ferulic acid decarboxylation catalyzed by phenolic acid decarboxylase from Candida guilliermondii” (AMB Express, 2012).
# System: COc1cc(/C=C/C(=O)O)ccc1O
# Test: purified protein
# Conditions: control without ultrafiltrate activator, general assay 0.1 M sodium phosphate pH 6.0, 25°C
substance,measurement,value
CgPAD (phenolic acid decarboxylase) (Meyerozyma guilliermondii),Km,5.31 mM
same,kcat,89.7 s⁻¹
